Data published in US20060045884A1 (BOARD OF REGENTS, published 2006).

Key:
[1] = molecular target: T1, HLA-A2.1 heavy chain with I125-labeled β2-microglobulin (heterotrimer dissociation assay) (human, I^125-labeled); test: dissociation of 125I-β2-microglobulin from the HLA-A2.1/peptide/β2m heterotrimer, HPLC gel filtration
T1 construct: The complex is isolated by HPLC gel filtration; T1/2 is the half-time of β2m dissociation from the complex that holds the tested peptide; also called heterotrimer complex of the HLA-A2.1 heavy chain, peptide, and β2-microglobulin

[2] = molecular target: T2, HLA-A2.1 (HLA-A*0201) with β2-microglobulin on the surface of T2 cells (human); test: T2 cell HLA-A2.1 stabilisation, flow cytometry (FIG. 34)
T2 construct: also called surface HLA-A2.1 on T2

[3] = molecular target: T1, HLA-A2.1 heavy chain with I125-labeled …; test: 125I-β2-microglobulin dissociation from the heterotrimer, gel filtration
[4] = molecular target: T2, HLA-A2.1 (HLA-A*0201) with …; test: peptide-binding assay, HLA-A2 stabilisation on T2 cells; reference peptide PR1

Binder | T1/2 [1] [h] | binding result [2] | binding result [3] | FI ratio to PR1 (stabilisation of HLA-A2 on T2 cells) [4] [ratio]
VLQELNVTV (Synthetic peptide, at least 95% pure) [PR1 peptide (proteinase 3 aa 169-177)] | 24.3 |  |  | 
RLFPDFFTRV (Synthetic peptide) [PR2 peptide (proteinase 3 derived)] | 2.33 |  |  | 
SLWRRPFNV [MY1 peptide (myeloperoxidase derived)] |  | binds | binds | 
KLLLALAGL [MY2 peptide (myeloperoxidase derived)] |  | binds | binds | 
LLSYFKQPV [MY3 peptide (myeloperoxidase derived)] |  | binds | binds | 
RLFEQVMRI [MY4 peptide (myeloperoxidase derived)] |  | binds | binds | 
ILLDWLMEV (also called cyclin E1 peptide) [CCNE1144-152 (cyclin E1 derived nonameric peptide)] |  |  |  | 1.01
ILLDWLLEV (also called cyclin E2 peptide) [CCNE2144-152 (cyclin E2 derived nonameric peptide)] |  |  |  | 1.19
LIQPFMFRL [MY5 peptide (myeloperoxidase derived)] |  | binds | binds | 
